Reference: article PMC9608600, “Functional Characterization of Saccharomyces cerevisiae P5C Reductase, the Enzyme at the Converging Point of Proline and Arginine Metabolism” (Microorganisms, 2022)

T1: Saccharomyces cerevisiae P5C reductase (Pro3, ScP5CR) (Saccharomyces cerevisiae, UniProt P32263)
T1 construct: native full-length enzyme purified from commercial bakers' yeast; untagged; gene-deduced subunit 30,132 Da; native 320 kDa, homodecamer
T1 sequence (P32263 1-286): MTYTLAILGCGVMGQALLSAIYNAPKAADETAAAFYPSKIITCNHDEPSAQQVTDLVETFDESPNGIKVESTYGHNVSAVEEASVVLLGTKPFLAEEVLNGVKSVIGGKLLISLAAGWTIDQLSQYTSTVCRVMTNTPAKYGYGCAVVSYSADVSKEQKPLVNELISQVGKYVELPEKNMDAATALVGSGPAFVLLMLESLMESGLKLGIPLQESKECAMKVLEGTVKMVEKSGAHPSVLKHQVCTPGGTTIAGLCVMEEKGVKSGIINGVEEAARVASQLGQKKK

B1: Saccharomyces cerevisiae P5C reductase (Pro3, ScP5CR) (Saccharomyces cerevisiae S288C) (protein)
chain: T1 sequence (P32263 1-286)
notes: native full-length enzyme purified from commercial bakers' yeast; untagged; gene-deduced subunit 30,132 Da; native 320 kDa, homodecamer

How the values were obtained:
[1] = target: T1, Saccharomyces cerevisiae P5C reductase (Pro3, ScP5CR); test: NAD(P)H oxidation at […] nm, nonlinear regression; format: biochemical
purified protein [2] = substrate: NC(=O)C1=CN([C@@H]2O[C@H](COP(=O)(O)OP(=O)(O)OC[C@H]3O[C@@H](n4cnc5c(N)ncnc54)[C@H](O)[C@@H]3O)[C@@H](O)[C@H]2O)C=CC1; test: purified protein; format: biochemical, Saccharomyces cerevisiae; conditions: 1 mM L-P5C, Tris-HCl pH 7.2, 30 °C, kcat per monomer
purified protein [3] = substrate: NC(=O)C1=CN([C@@H]2O[C@H](COP(=O)(O)OP(=O)(O)OC[C@H]3O[C@@H](n4cnc5c(N)ncnc54)[C@H](OP(=O)(O)O)[C@@H]3O)[C@@H](O)[C@H]2O)C=CC1; test: purified protein; format: biochemical, Saccharomyces cerevisiae; conditions: 1 mM L-P5C, Tris-HCl pH 7.2, 30 °C, kcat per monomer
purified protein [4] = substrate: O=C(O)[C@@H]1CCC=N1; test: purified protein; format: biochemical, Saccharomyces cerevisiae; conditions: 0.5 mM NADH co-substrate, Tris-HCl pH 7.2, 30 °C, DL-P5C used, concentration as L-P5C

| Molecule | Ki [1] [mM] | Km (purified protein [2]) [µM] | Vmax (purified protein [2]) | kcat (purified protein [2]) [s⁻¹] | kcat/Km (purified protein [2]) [M⁻¹ s⁻¹] | Km (purified protein [3]) [µM] | Vmax (purified protein [3]) | kcat (purified protein [3]) | kcat/Km (purified protein [3]) [M⁻¹ s⁻¹] | Km (purified protein [4]) [µM] |
| --- | --- | --- | --- | --- | --- | --- | --- | --- | --- | --- |
| N=C(N)NCCC[C@H](N)C(=O)O [arginine] | 19 |  |  |  |  |  |  |  |  |  |
| B1 |  | 84.0 ± 7.1 | 107.9 ± 3.0 μkat (mg protein)^−1 | 3314 | 3.95e+07 | 133.4 ± 7.3 | 294.2 ± 5.7 μkat (mg protein)^−1 | 10,515 s^−1 | 7.88e+07 | 64.3 ± 5.5 |
